What was measured:
Test in all cases: SPR steady state
His-tagged human FcyRIIB = molecular target: T1, His-tagged human FcyRIIB (human, UniProt P31994 46-217)
T1 chain: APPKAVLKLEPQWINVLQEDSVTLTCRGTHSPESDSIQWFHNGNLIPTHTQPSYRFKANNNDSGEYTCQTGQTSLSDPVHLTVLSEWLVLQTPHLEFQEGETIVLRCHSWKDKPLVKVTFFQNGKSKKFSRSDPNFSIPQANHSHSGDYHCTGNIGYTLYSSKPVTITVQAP

[1] = molecular target: His-tagged human FcyRIIIA (human, UniProt P08637 17-208)
His-tagged human FcyRIIA = molecular target: T2, His-tagged human FcyRIIA (human, UniProt P12318 36-218)
T2 chain: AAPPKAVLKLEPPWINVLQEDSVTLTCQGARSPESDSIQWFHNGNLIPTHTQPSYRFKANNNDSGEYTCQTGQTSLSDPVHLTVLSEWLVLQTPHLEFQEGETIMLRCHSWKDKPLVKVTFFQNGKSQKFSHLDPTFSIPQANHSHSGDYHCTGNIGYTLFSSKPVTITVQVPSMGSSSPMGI

Chain of His-tagged human FcyRIIIA (P08637 17-208): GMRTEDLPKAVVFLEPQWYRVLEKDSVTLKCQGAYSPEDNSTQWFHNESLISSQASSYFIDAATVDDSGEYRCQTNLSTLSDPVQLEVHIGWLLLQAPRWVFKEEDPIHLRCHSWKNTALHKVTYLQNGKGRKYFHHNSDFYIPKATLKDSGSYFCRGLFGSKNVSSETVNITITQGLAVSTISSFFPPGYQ

Kd (His-tagged human FcyRIIB): 2.2 µM
Kd [1]: 140 µM
Kd (His-tagged human FcyRIIA): 16.8 µM
B1: Control Antibody A (Lot- L2), 9F7_VH_IgG4 (antibody)
constant: ASTKGPSVFPLAPCSRSTSESTAALGCLVKDYFPEPVTVSWNSGALTSGVHTFPAVLQSSGLYSLSSVVTVPSSSLGTKTYTCNVDHKPSNTKVDKRVESKYGPPCPSCPAPEFLGGPSVFLFPPKPKDTLMISRTPEVTCVVVDVSQEDPEVQFNWYVDGVEVHNAKTKPREEQFNSTYRVVSVLTVLHQDWLNGKEYKCKVSNKGLPSSIEKTISKAKGQPREPQVYTLPPSQEEMTKNQVSLTCLVKGFYPSDIAVEWESNGQPENNYKTTPPVLDSDGSFFLYSRLTVDKSRWQEGNVFSCSVMHEALHNRFTQKSLSLSLGK
